According to paper PMC10983791:

Experiments:
[1] = substrate: C[S+](CC[C@H](N)C(=O)[O-])C[C@H]1O[C@@H](n2cnc3c(N)ncnc32)[C@H](O)[C@@H]1O; test: KM determination by method of initial rates, GNMT; format: biochemical, human; conditions: other: GNMT; substrate 100 μM; MTase-Glo readout; pH 8.0
[2] = substrate: C[S+](CC[C@H](N)C(=O)[O-])C[C@H]1O[C@@H](n2cnc3c(N)ncnc32)[C@H](O)[C@@H]1O; test: KM determination by method of initial rates, PNMT; format: biochemical, human; conditions: other: PNMT; norepinephrine 100 μM; pH 8.0
[3] = substrate: NC[C@H](O)c1ccc(O)c(O)c1; test: KM determination by method of initial rates, PNMT; format: biochemical, human; conditions: other: PNMT; SAM 100 μM; fit to substrate inhibition model; pH 8.0
[4] = substrate: NC(=O)c1cccnc1; test: purified protein, by the assay type; conditions: other: NNMT; SAM 100 μM; MTase-Glo readout; pH 8.0
[5] = substrate: C[S+](CC[C@H](N)C(=O)[O-])C[C@H]1O[C@@H](n2cnc3c(N)ncnc32)[C@H](O)[C@@H]1O; test: KM determination by method of initial rates, NNMT; format: biochemical, human; conditions: other: NNMT; substrate 100 μM; MTase-Glo readout; pH 8.0
[6] = substrate: C[S+](CC[C@H](N)C(=O)[O-])C[C@H]1O[C@@H](n2cnc3c(N)ncnc32)[C@H](O)[C@@H]1O; test: KM determination by method of initial rates, COMT; format: biochemical, human; conditions: other: COMT; substrate 100 μM; MTase-Glo readout; pH 8.0
[7] = substrate: NC[C@H](O)c1ccc(O)c(O)c1; test: KM determination by method of initial rates, COMT; format: biochemical, human; conditions: other: COMT; SAM 100 μM; MTase-Glo readout; pH 8.0
[8] = substrate: NCCc1c[nH]cn1; test: purified protein, by the assay type; conditions: other: HNMT; SAM 100 μM; MTase-Glo readout; pH 8.0
[9] = substrate: C[S+](CC[C@H](N)C(=O)[O-])C[C@H]1O[C@@H](n2cnc3c(N)ncnc32)[C@H](O)[C@@H]1O; test: KM determination by method of initial rates, HNMT; format: biochemical, human; conditions: other: HNMT; substrate 100 μM; MTase-Glo readout; pH 8.0

B1: GNMT (Homo sapiens) (protein)
chain: MVDSVYRTRSLGVAAEGLPDQYADGEAARVWQLYIGDTRSRTAEYKAWLLGLLRQHGCQRVLDVACGTGVDSIMLVEEGFSVTSVDASDKMLKYALKERWNRRHEPAFDKWVIEEANWMTLDKDVPQSAEGGFDAVICLGNSFAHLPDCKGDQSEHRLALKNIASMVRAGGLLVIDHRNYDHILSTGCAPPGKNIYYKSDLTKDVTTSVLIVNNKAHMVTLDYTVQVPGAGQDGSPGLSKFRLSYYPHCLASFTELLQAAFGGKCQHSVLGDFKPYKPGQTYIPCYFIHVLKRTD
[1]
  Km: 12.1 ± 3.6 µM

B2: PNMT (Homo sapiens) (protein)
chain: MSGADRSPNAGAAPDSAPGQAAVASAYQRFEPRAYLRNNYAPPRGDLCNPNGVGPWKLRCLAQTFATGEVSGRTLIDIGSGPTVYQLLSACSHFEDITMTDFLEVNRQELGRWLQEEPGAFNWSMYSQHACLIEGKGECWQDKERQLRARVKRVLPIDVHQPQPLGAGSPAPLPADALVSAFCLEAVSPDLASFQRALDHITTLLRPGGHLLLIGALEESWYLAGEARLTVVPVSEEEVREALVRSGYKVRDLRTYIMPAHLQTGVDDVKGVFFAWAQKVGL
[2]
  Km: 3.6 ± 0.6 µM
[3]
  Km: 16.2 ± 4.3 µM

B3: NNMT (Homo sapiens) (protein)
chain: MESGFTSKDTYLSHFNPRDYLEKYYKFGSRHSAESQILKHLLKNLFKIFCLDGVKGDLLIDIGSGPTIYQLLSACESFKEIVVTDYSDQNLQELEKWLKKEPEAFDWSPVVTYVCDLEGNRVKGPEKEEKLRQAVKQVLKCDVTQSQPLGAVPLPPADCVLSTLCLDAACPDLPTYCRALRNLGSLLKPGGFLVIMDALKSSYYMIGEQKFSSLPLGREAVEAAVKEAGYTIEWFEVISQSYSSTMANNEGLFSLVARKLSRPL
[4]
  Km: 3.8 ± 0.5 µM
[5]
  Km: 11.9 ± 5.7 µM

B4: COMT (Homo sapiens) (protein)
chain: MPEAPPLLLAAVLLGLVLLVVLLLLLRHWGWGLCLIGWNEFILQPIHNLLMGDTKEQRILNHVLQHAEPGNAQSVLEAIDTYCEQKEWAMNVGDKKGKIVDAVIQEHQPSVLLELGAYCGYSAVRMARLLSPGARLITIEINPDCAAITQRMVDFAGVKDKVTLVVGASQDIIPQLKKKYDVDTLDMVFLDHWKDRYLPDTLLLEECGLLRKGTVLLADNVICPGAPDFLAHVRGSSCFECTHYQSFLEYREVVDGLEKAIYKGPGSEAGP
[6]
  Km: 14.5 ± 1.8 µM
[7]
  Km: 13.7 ± 2.2 µM

B5: HNMT (Homo sapiens) (protein)
chain: MASSMRSLFSDHGKYVESFRRFLNHSTEHQCMQEFMDKKLPGIIGRIGDTKSEIKILSIGGGAGEIDLQILSKVQAQYPGVCINNEVVEPSAEQIAKYKELVAKTSNLENVKFAWHKETSSEYQSRMLEKKELQKWDFIHMIQMLYYVKDIPATLKFFHSLLGTNAKMLIIVVSGSSGWDKLWKKYGSRFPQDDLCQYITSDDLTQMLDNLGLKYECYDLLSTMDISDCFIDGNENGDLLWDFLTETCNFNATAPPDLRAELGKDLQEPEFSAKKEGKVLFNNTLSFIVIEA
[8]
  Km: 5.3 ± 2.1 µM
[9]
  Km: 9.3 ± 2.1 µM
